Test results from article PMC5100564 (Nucleic Acids Research, 2016).

Biological target: T1, recombinant GST-Scd6 (S. cerevisiae, UniProt P45978 1-349)
T1 sequence (looked up): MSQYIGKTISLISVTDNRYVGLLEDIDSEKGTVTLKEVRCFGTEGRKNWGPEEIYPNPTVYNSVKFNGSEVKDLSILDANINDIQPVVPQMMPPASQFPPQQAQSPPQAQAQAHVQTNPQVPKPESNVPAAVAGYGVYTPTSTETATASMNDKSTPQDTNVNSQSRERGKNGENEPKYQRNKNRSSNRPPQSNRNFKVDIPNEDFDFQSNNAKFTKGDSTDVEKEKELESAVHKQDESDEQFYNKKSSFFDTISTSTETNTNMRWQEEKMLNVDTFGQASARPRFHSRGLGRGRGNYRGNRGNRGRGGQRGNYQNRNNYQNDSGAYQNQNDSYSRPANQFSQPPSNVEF
Assay: pull-down

B1: recombinant purified His-Hmt1 (enzyme, S. cerevisiae, UniProt P38074 1-348, looked up)
chain: MSKTAVKDSATEKTKLSESEQHYFNSYDHYGIHEEMLQDTVRTLSYRNAIIQNKDLFKDKIVLDVGCGTGILSMFAAKHGAKHVIGVDMSSIIEMAKELVELNGFSDKITLLRGKLEDVHLPFPKVDIIISEWMGYFLLYESMMDTVLYARDHYLVEGGLIFPDKCSIHLAGLEDSQYKDEKLNYWQDVYGFDYSPFVPLVLHEPIVDTVERNNVNTTSDKLIEFDLNTVKISDLAFKSNFKLTAKRQDMINGIVTWFDIVFPAPKGKRPVEFSTGPHAPYTHWKQTIFYFPDDLDAETGDTIEGELVCSPNEKNNRDLNIKISYKFESNGIDGNSRSRKNEGSYLMH
  binding result: binds
